Test system: peptide library, one residue held at a place counted from the Y acceptor
Experiment: relative phosphorylation of the sub-library (ratio to the mean residue at this position); higher = residue favoured
Outline: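 Peptide library mixtures, biotinylated and centred on Tyr, each fixed one residue at one position from −5 to +5. Purified recombinant kinases were incubated with them for 90 min in 384-well plates alongside 50 μM ATP and γ-32P-ATP, and the captured, rinsed peptides on streptavidin membranes were measured by phosphorimaging and ImageQuant. Normalization divided each position's intensities by the sum of its 18 randomized residues (16 for the Ser/Thr-free library) and multiplied by that number, so that values give phosphorylation relative to the mean randomized residue.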

Chain of PDGFRB, construct: aa557-end, human (P09619 557-1106, looked up): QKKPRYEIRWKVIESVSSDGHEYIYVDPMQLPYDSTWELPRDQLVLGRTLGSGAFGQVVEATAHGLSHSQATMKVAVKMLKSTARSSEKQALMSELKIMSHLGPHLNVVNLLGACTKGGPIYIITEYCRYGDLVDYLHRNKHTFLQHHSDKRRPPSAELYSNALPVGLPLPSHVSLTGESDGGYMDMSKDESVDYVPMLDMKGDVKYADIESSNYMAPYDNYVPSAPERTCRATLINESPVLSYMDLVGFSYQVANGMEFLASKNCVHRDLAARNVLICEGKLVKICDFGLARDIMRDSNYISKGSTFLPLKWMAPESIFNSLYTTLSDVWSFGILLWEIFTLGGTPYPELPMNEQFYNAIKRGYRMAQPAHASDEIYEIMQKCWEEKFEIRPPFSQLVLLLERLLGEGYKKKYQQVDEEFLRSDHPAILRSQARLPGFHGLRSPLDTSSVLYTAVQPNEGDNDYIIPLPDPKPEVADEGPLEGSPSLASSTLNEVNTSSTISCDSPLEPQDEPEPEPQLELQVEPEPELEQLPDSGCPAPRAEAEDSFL
Chain of PDHK1, construct: Full length, human (Q15118 whole entry, looked up): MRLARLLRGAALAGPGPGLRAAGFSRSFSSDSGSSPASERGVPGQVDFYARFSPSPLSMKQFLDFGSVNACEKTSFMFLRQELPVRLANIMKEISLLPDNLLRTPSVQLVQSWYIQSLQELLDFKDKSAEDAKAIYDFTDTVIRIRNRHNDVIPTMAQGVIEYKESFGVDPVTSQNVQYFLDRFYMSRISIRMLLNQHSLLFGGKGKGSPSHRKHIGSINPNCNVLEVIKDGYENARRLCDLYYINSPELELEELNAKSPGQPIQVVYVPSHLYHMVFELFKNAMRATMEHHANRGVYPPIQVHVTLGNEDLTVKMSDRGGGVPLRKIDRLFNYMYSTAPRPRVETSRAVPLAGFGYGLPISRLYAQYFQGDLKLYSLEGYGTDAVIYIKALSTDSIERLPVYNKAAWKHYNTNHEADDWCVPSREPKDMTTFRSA
Chain of PDHK3, construct: Full length, human (Q15120 whole entry, looked up): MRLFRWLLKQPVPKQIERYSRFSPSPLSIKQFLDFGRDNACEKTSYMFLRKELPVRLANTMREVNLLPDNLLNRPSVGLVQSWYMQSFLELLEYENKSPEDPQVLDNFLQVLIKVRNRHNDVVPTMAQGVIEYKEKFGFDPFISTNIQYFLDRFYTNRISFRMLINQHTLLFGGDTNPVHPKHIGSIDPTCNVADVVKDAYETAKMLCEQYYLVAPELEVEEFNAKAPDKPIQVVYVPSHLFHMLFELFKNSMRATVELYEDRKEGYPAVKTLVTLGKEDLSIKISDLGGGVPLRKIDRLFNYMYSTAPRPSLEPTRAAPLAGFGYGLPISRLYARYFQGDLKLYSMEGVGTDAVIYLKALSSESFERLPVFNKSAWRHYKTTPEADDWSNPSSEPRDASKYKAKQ

PDGFRB, construct: aa557-end, human (from UniProt P09619)
relative phosphorylation
Settings | at +1 | at +2 | at +3 | at +4 | at +5 | at -1 | at -2 | at -3 | at -4 | at -5
A fixed | 1.1 | 0.618 | 0.621 | 0.809 | 0.959 | 0.751 | 0.921 | 0.883 | 1.02 | 0.916
D fixed | 0.263 | 0.542 | 0.332 | 0.816 | 0.825 | 1.46 | 0.994 | 1.26 | 1.11 | 1.13
E fixed | 0.377 | 0.815 | 0.245 | 0.817 | 0.757 | 0.988 | 1.08 | 1.26 | 0.996 | 1.12
F fixed | 1.49 | 1.41 | 1.54 | 0.86 | 0.93 | 1.33 | 0.75 | 0.807 | 1.01 | 0.902
G fixed | 0.536 | 0.452 | 0.617 | 1.01 | 1.11 | 0.532 | 1.18 | 1.03 | 1.15 | 1.11
H fixed | 1.25 | 0.986 | 0.975 | 1.25 | 1.04 | 1.96 | 1.27 | 1.08 | 1.08 | 1.08
I fixed | 1.91 | 1.04 | 2.13 | 0.898 | 0.769 | 1.12 | 0.745 | 0.707 | 0.816 | 0.877
K fixed | 0.561 | 1.02 | 0.776 | 1.17 | 1.15 | 0.534 | 1.02 | 0.997 | 1.05 | 1.06
L fixed | 0.96 | 1.12 | 1.57 | 0.854 | 0.906 | 0.898 | 0.88 | 0.752 | 0.793 | 0.843
M fixed | 0.964 | 1.2 | 1.3 | 0.978 | 0.852 | 0.818 | 0.76 | 0.857 | 0.816 | 0.892
N fixed | 0.451 | 0.899 | 0.775 | 0.976 | 1.12 | 1.58 | 1.28 | 1.31 | 1.03 | 1.12
P fixed | 0.259 | 0.732 | 0.857 | 0.909 | 1.08 | 0.742 | 1.05 | 1.08 | 1.16 | 0.995
Q fixed | 1.05 | 0.969 | 0.715 | 1.14 | 1 | 1.11 | 1.23 | 1.12 | 1.14 | 1.21
R fixed | 0.668 | 1.67 | 1.09 | 1.5 | 1.41 | 0.56 | 1.2 | 1.19 | 1.14 | 1.37
S fixed | 0.828 | 0.663 | 0.733 | 0.958 | 1.2 | 0.696 | 1.16 | 1.08 | 0.87 | 0.916
T fixed | 1.27 | 0.75 | 0.711 | 0.965 | 0.96 | 0.872 | 0.958 | 0.923 | 0.759 | 0.76
V fixed | 2.65 | 0.96 | 1.58 | 0.881 | 0.768 | 1.05 | 0.752 | 0.744 | 0.776 | 0.721
W fixed | 1.41 | 2.14 | 1.42 | 1.2 | 1.15 | 0.997 | 0.787 | 0.924 | 1.28 | 0.986
pThr fixed | 0.867 | 0.439 | 0.272 | 0.505 | 0.575 | 0.682 | 0.836 | 0.865 | 0.87 | 0.845
pTyr fixed | 1.15 | 1.84 | 0.4 | 0.809 | 0.751 | 1.06 | 1.08 | 1.19 | 1.29 | 1.01

PDHK1, construct: Full length, human (from UniProt Q15118)
relative phosphorylation
Settings | at +1 | at +2 | at +3 | at +4 | at +5 | at -1 | at -2 | at -3 | at -4 | at -5
A fixed | 0.893 | 0.682 | 0.8 | 0.868 | 0.717 | 0.76 | 1.54 | 0.847 | 0.895 | 0.845
D fixed | 1.27 | 1.58 | 1.3 | 1.3 | 1.52 | 1.58 | 1.19 | 1.2 | 1.32 | 1.24
E fixed | 1.12 | 1.17 | 1.41 | 1.16 | 1.27 | 1.96 | 1.24 | 1.06 | 1.26 | 1.34
F fixed | 0.897 | 1.29 | 0.991 | 0.899 | 0.97 | 0.627 | 0.764 | 0.933 | 1.06 | 1.01
G fixed | 1.04 | 0.92 | 1.02 | 1.16 | 1.1 | 0.971 | 1.17 | 1.03 | 1.06 | 0.973
H fixed | 1.2 | 1.02 | 1.03 | 1.17 | 1.08 | 0.937 | 0.903 | 1.01 | 1 | 1.14
I fixed | 0.779 | 0.704 | 0.862 | 0.895 | 0.845 | 0.938 | 0.71 | 0.72 | 0.755 | 0.844
K fixed | 0.785 | 0.938 | 0.809 | 0.891 | 0.784 | 0.819 | 0.827 | 0.912 | 0.865 | 0.974
L fixed | 0.844 | 0.863 | 0.78 | 0.907 | 0.838 | 0.888 | 0.72 | 0.93 | 0.881 | 0.906
M fixed | 1.18 | 0.882 | 1.03 | 0.911 | 0.873 | 0.794 | 0.826 | 0.843 | 0.914 | 0.837
N fixed | 1.1 | 1.02 | 1.01 | 0.982 | 1.04 | 1.03 | 1.01 | 1.01 | 0.997 | 1.03
P fixed | 0.925 | 1.1 | 0.981 | 1.16 | 0.898 | 0.974 | 1.73 | 1.06 | 0.91 | 0.945
Q fixed | 0.986 | 0.997 | 1.02 | 0.986 | 0.992 | 0.983 | 0.863 | 1.19 | 1.18 | 0.977
R fixed | 0.822 | 0.851 | 0.899 | 0.819 | 0.863 | 0.744 | 0.818 | 0.976 | 0.891 | 0.935
V fixed | 0.739 | 0.707 | 0.766 | 0.718 | 0.747 | 1.03 | 0.758 | 0.802 | 0.759 | 0.702
W fixed | 1.41 | 1.27 | 1.3 | 1.18 | 1.47 | 0.96 | 0.934 | 1.48 | 1.26 | 1.3
pThr fixed | 1.42 | 1.51 | 1.34 | 1.12 | 1.01 | 1.72 | 1.35 | 1.53 | 1.52 | 1.45
pTyr fixed | 1.23 | 1.36 | 1.41 | 1.14 | 1.31 | 1.71 | 1.63 | 1.64 | 1.36 | 1.47

PDHK3, construct: Full length, human (from UniProt Q15120)
relative phosphorylation
Settings | at +1 | at +2 | at +3 | at +4 | at +5 | at -1 | at -2 | at -3 | at -4 | at -5
A fixed | 0.864 | 0.935 | 0.907 | 1.15 | 0.809 | 0.955 | 1.04 | 0.965 | 1.15 | 1.1
D fixed | 1.32 | 1.44 | 1.3 | 1.46 | 1.44 | 1.19 | 1.1 | 1.17 | 1.1 | 1.09
E fixed | 1.1 | 1.02 | 1.32 | 1.46 | 1.23 | 0.907 | 1.02 | 0.781 | 0.943 | 0.994
F fixed | 0.733 | 0.957 | 0.902 | 0.883 | 0.884 | 0.734 | 0.863 | 0.82 | 0.811 | 0.999
G fixed | 1.14 | 0.947 | 1.11 | 1.06 | 1.09 | 1.03 | 1.07 | 1.24 | 1.33 | 1.12
H fixed | 0.976 | 1.03 | 0.971 | 1.07 | 0.992 | 0.908 | 0.901 | 0.76 | 0.958 | 1.06
I fixed | 0.74 | 0.721 | 0.875 | 0.87 | 0.766 | 0.781 | 0.793 | 0.67 | 0.826 | 0.874
K fixed | 1.02 | 0.994 | 0.862 | 0.886 | 0.842 | 1.22 | 1.15 | 1.17 | 1 | 1.09
L fixed | 0.876 | 0.878 | 0.869 | 1.03 | 0.886 | 0.906 | 1.12 | 1 | 0.9 | 0.95
M fixed | 0.895 | 0.784 | 1.03 | 0.855 | 0.873 | 0.765 | 0.875 | 0.745 | 0.843 | 0.779
N fixed | 1.18 | 1.01 | 0.955 | 0.877 | 0.944 | 1.04 | 0.912 | 0.933 | 0.986 | 0.897
P fixed | 1.15 | 1.14 | 0.994 | 1.09 | 1.01 | 1.26 | 1.39 | 1.71 | 1.09 | 1.08
Q fixed | 1.1 | 0.957 | 0.916 | 0.855 | 0.986 | 1.08 | 0.825 | 1.04 | 0.995 | 0.978
R fixed | 1.09 | 0.889 | 0.906 | 0.714 | 0.926 | 1.09 | 1.02 | 1.01 | 1.18 | 0.997
V fixed | 0.722 | 0.908 | 0.836 | 0.781 | 0.778 | 0.898 | 0.911 | 0.885 | 0.827 | 0.844
W fixed | 1.1 | 1.39 | 1.26 | 0.97 | 1.54 | 1.24 | 1.03 | 1.09 | 1.07 | 1.15
pThr fixed | 1.23 | 1.1 | 1.23 | 1.5 | 1.23 | 1.05 | 0.926 | 1.01 | 0.884 | 0.839
pTyr fixed | 1.22 | 1.04 | 1.01 | 1.05 | 1.42 | 0.948 | 0.814 | 0.789 | 0.694 | 0.754
